Data as given in patent publication US20200407452A1 (published 2020).

How the values were obtained:
[1] = biological target: T1, native human MET on living cells (human, UniProt P08581 25-1390); test: FACS, A549 cells
T1 construct: whole, on cells; also called Human cells (A549); A549

[2] = biological target: T2, human MET ECD (human, UniProt P08581 25-932); test: ELISA, MET ECD coated, mAb 0-20 nM
T2 construct: range 1-932; recombinant; range as printed includes the signal peptide; also called hMET; hMET ECD
Experimental: (§1) Production (by transient transfection of mammalian cells) and purification (by protein A affinity chromatography) of the resulting chimeric llama-human IgG1 molecules was outsourced to U-protein Express. Binding of chimeric mAbs to MET was determined by ELISA using hMET or mMET ECD in solid phase and increasing concentrations of antibodies (0-20 nM) in solution. […] Binding capacity (EMAX) varied from antibody to antibody, possibly due to partial epitope exposure in the immobilized antigen, but was similar in the human and mouse setting.

[3] = biological target: T3, mouse MET ECD (mouse, UniProt P16056 25-931); test: ELISA, MET ECD coated, mAb 0-20 nM
T3 construct: range 1-931; recombinant; range as printed includes the signal peptide; also called mMET; mMET ECD
Experimental: as §1

[4] = biological target: T2, human MET ECD; test: ELISA, hMET ECD coated
[5] = biological target: T4, native mouse MET on living cells (mouse, UniProt P16056 25-1379); test: cell-based or functional assay
[6] = biological target: T1, native human MET on living cells; test: cell-based or functional assay
[7] = biological target: T4, native mouse MET on living cells; test: cell-based or functional assay; remark: listed apart in the source
[8] = biological target: T1, native human MET on living cells; test: cell-based or functional assay; remark: listed apart in the source
[9] = biological target: T2, human MET ECD; test: ELISA, WT or mutant hMET ECD coated
Experimental: Using human MET as a template, we mutagenized each of these residues in different permutations, generating a series of MET mutants that are fully human except for specific residues, which are llama. Next, we tested the affinity of selected SEMA-binding mAbs (71D6, 71C3, 71D4, 71A3, 71G2) and PSI-binding mAbs (76H10 and 71G3) for these MET mutants by ELISA. To this end, the various MET proteins were immobilized in solid phase (100 ng/well in a 96-well plate) and then exposed to increasing concentrations of antibodies (0-50 nM) solution. […] Wild-type human MET was used as positive control.
TABLE 24 The epitopes of MET responsible for agonistic antibody binding represent residues conserved among H. sapiens, M. musculus, R. norvegicus, M. fascicularis but not among the same species and L. glama. The relevance of residues conserved among human, mouse, rat, cynomolgus monkey but not llama MET for binding to agonistic mAbs was tested by ELISA. Wild-type (WT) or mutant (MT) human MET ECD was immobilized in solid phase and exposed to increasing concentrations of mAbs in solution. […] All binding values were normalized to the WT protein and are expressed as % binding (EMAX) compared to WT MET.

[10] = biological target: human MET ECD mutant H (mutations 2, 4) (human) (UniProt P08581); test: ELISA, WT or mutant hMET ECD coated
[11] = biological target: human MET ECD mutant A (mutations 1, 2, 3) (human) (UniProt P08581); test: ELISA, WT or mutant hMET ECD coated
[12] = biological target: human MET ECD mutant D (mutations 1, 2) (human) (UniProt P08581); test: ELISA, WT or mutant hMET ECD coated
[13] = biological target: human MET ECD mutant E (mutations 2, 3, 4) (human) (UniProt P08581); test: ELISA, WT or mutant hMET ECD coated
[14] = biological target: T4, native mouse MET on living cells; test: FACS, MLP29 cells
[15] = biological target: T3, mouse MET ECD; test: ELISA, mMET ECD coated
[16] = biological target: T4, native mouse MET on living cells; test: cell-based or functional assay; remark: listed apart in the source
[17] = biological target: T1, native human MET on living cells; test: cell-based or functional assay; remark: listed apart in the source

B1: 71D6 chimeric llama-human IgG1 mAb (antibody, V domains shown)
VH: ELQLVESGGGLVQPGGSLRLSCAASGFTFSSYGMSWVRQAPGKGLEWVSAINSYGGSTSYADSVKGRFTISRDNAKNTLYLQMNSLKPEDTAVYYCAKEVRADLSRYNDYESYDYWGQGTQVTVSS
VL: QPVLNQPSALSVTLGQTAKITCQGGSLGARYAHWYQQKPGQAPVLVIYDDDSRPSGIPERFSGSSSGGTATLTISGAQAEDEGDYYCQSADSSGSVFGGGTHLTVL
notes: human IgG1 CH1-CH2-CH3 and human CL lambda; also called 71D6 Human IgG1/lambda
[1]
  EMAX: 115 % CTR
[2]
  EMAX: 2.08 OD450 AU
[3]
  EMAX: 2.01 OD450 AU
[4]
  EC50: 0.032 nM
[5]
  MLP29 MET act. (EMAX, % HGF): 110 % HGF
  MLP29 br. m. (branch n.): 41.3 branches per spheroid
[6]
  A549 MET act. (EMAX, % HGF): 104 % HGF
  LOC br. m. (branch n.): 32.7 branches per spheroid
[7]
  protection from staurosporine-induced apoptosis EC50, MLP29 cells: 0.95 nM
  protection from staurosporine-induced apoptosis EMAX, MLP29 cells: 68.3%
[8]
  protection from staurosporine-induced apoptosis EC50, MCF10A cells: 1.48 nM
  protection from staurosporine-induced apoptosis EMAX, MCF10A cells: 66.8%
[9]
  % binding (EMAX) vs WT MET ECD: 100%
[10]
  % binding (EMAX) vs WT MET ECD: 38.6%
[11]
  % binding (EMAX) vs WT MET ECD: 103%
[12]
  % binding (EMAX) vs WT MET ECD: 128%
[13]
  % binding (EMAX) vs WT MET ECD: 43.6%
[14]
  EMAX: 120 % CTR
[15]
  EC50: 0.036 nM
[16]
  phospho-MET ELISA EMAX, MLP29 cells: 115 % HGF activity
[17]
  phospho-MET ELISA EMAX, A549 cells: 102 % HGF activity
